Measured values: patent US20050136043A1, “TGFbeta signaling inhibitors” (Ludwig Institute for Cancer Research, priority 2003, published 2005)

Columns and labels:
[1] = tested on: phosphorylation of endogenous Smad2 by TβR-I in Mv1Lu cells; test: TGFβ1-dependent phosphorylation of endogenous Smad2 in Mv1Lu cells (pS2 immunoblot); format: cell-based; settings: Mv1Lu cells pretreated with peptide, 15 min TGFβ1, FIG. 6A
GST-TβR-I = biological target: T1, GST-TβR-I (Homo sapiens, UniProt P36897, T204D); test: Phosphorylation of GST-Smad2 by GST-TβR-I, in vitro kinase assay; format: biochemical; settings: for Inhibition of phosphorylation at the C-terminus of GST-Smad2: FIG. 4B; for Concentration at which effect of Sm2 peptides was observed / Concentration of maximal inhibition: in vitro kinase assay; for Concentration of maximal inhibition: data not shown
T1 construct: the complete cytoplasmic part (amino acid residues 148-503) of constitutively active TβR-I (T204D) FLAG-tagged at the C-terminus; made in house; host or cells: E. coli
T1 sequence (P36897 148-503 T204D): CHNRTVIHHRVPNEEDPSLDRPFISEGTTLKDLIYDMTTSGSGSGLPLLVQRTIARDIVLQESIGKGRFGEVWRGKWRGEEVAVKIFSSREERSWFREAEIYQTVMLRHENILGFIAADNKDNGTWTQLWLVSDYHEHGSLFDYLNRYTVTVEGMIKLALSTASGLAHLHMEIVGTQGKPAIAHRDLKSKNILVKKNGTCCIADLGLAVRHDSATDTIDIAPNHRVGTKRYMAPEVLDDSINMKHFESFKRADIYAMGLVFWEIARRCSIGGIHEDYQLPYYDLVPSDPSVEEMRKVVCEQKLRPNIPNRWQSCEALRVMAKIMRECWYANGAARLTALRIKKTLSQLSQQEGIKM
Procedure: In vitro kinase assay: GST-TβRI activity was assayed in vitro using the known TβR-I substrates GST-Smad3deltaMH1, GST-Smad2; GST-Smad1 was used as a control for specificity. The reaction mixture (20 μl) contained 20 mM HEPES (pH 7.4), 10 mM MgCl2, 2 mM MnCl2, 1 mM dithiothreitol (DTT), 5 μM ATP plus 0.5 μCi [γ^32P]ATP (Redivue, Amersham Biosciences), and inhibitors at different concentrations. The reaction was initiated by an addition of 0.02 μg purified GST-TβRI, followed by incubation at 22° C. for 20 min. Reaction was terminated by addition of 5 μl of 5× SDS-sample buffer. Samples were subjected to SDS-PAGE followed by analysis in a FujiX2000 phosphorimager. For all in vitro enzyme assays, the percent inhibition was calculated as 100×(1-Ai/A0), where Ai and A0 are levels of GST-Smad phosphorylation in the presence and absence of inhibitors, respectively. […] Phosphorylated GST-Smad3deltaMH1 and autophosphorylated GST-TβRI were analyzed by tryptic phosphopeptide mapping, as described previously.
Phosphorylation of GST-Smad2 by GST-TβR-I was performed in an in vitro kinase assay (FIG. 4B). The peptides were added as indicated.

Mv1Lu cells = test: Growth inhibition assay, [3H]thymidine incorporation; format: cell-based; settings: peptide 50 μM, TGFβ1 0.1 ng/ml, 24 hours; for Reversion of the inhibitory action of TGFβ1 on DNA synthesis: FIG. 7
Procedure: Growth inhibition assay: Growth inhibition assay with MV1Lu cells, using evaluation of [^3H]thymidine incorporation, was performed as described earlier. Briefly, cells were preincubated with peptides for 30 min, and then treated or not with TGFβ1 (0.1 ng/ml) for 24 h. During the last two hours of incubation, [^3H]thymidine was added. Radioactivity incorporated into DNA was measured in a scintillation counter. No cytotoxic effects of peptides were observed after 24 h incubation with cells, as evaluated by observation of cells in a microscope.
To explore whether the antp-Sm2A (SEQ ID NO:2) peptide can interfere with the TGFβ-dependent effects on cells, we performed an assay with Mv1Lu cells, which are widely used in studies of TGFβ effects and are potently growth-inhibited by TGFβ [29]. […] [^3H]thymidine was added to cells for last two hours of incubation, and radioactivity incorporated into DNA was measured.

RQIKIWFQNRRMKWKKTQMGSPSVRCSAMA (listed as Homo sapiens) [antp-Sm2A]
Inhibition of TGFβ1-dependent phosphorylation of endogenous Smad2 compared to nontreated cells [1]: 67% | Inhibition of phosphorylation at the C-terminus of GST-Smad2 (GST-TβR-I): inhibited | Concentration at which effect of Sm2 peptides was observed (GST-TβR-I): 10 µM | Concentration of maximal inhibition (GST-TβR-I): 200 µM | Inhibition of [3H]thymidine incorporation in response to TGFβ1 (Mv1Lu cells): 26% | Reversion of the inhibitory action of TGFβ1 on DNA synthesis (Mv1Lu cells): reverted to a significant extent

RQIKIWFQNRRMKWKKTQMGSPSVRCSSMS (listed as Homo sapiens) [antp-Sm2S, penetratin fused to the C-terminus of wild-type Smad2]
Effect of peptides on TGFβ1-dependent phosphorylation of endogenous Smad2 [1]: weaker affect | Inhibition of phosphorylation at the C-terminus of GST-Smad2 (GST-TβR-I): less pronounced | Concentration at which effect of Sm2 peptides was observed (GST-TβR-I): 10 µM | Concentration of maximal inhibition (GST-TβR-I): 200 µM | Reversion of the inhibitory action of TGFβ1 on DNA synthesis (Mv1Lu cells): reverted to a significant extent
